Test [1] concerns the target T1, recombinant soluble human LAG-3 (human, UniProt P18627 23-450, limits assumed).
T1 construct: also called soluble LAG-3
T1 sequence (looked up): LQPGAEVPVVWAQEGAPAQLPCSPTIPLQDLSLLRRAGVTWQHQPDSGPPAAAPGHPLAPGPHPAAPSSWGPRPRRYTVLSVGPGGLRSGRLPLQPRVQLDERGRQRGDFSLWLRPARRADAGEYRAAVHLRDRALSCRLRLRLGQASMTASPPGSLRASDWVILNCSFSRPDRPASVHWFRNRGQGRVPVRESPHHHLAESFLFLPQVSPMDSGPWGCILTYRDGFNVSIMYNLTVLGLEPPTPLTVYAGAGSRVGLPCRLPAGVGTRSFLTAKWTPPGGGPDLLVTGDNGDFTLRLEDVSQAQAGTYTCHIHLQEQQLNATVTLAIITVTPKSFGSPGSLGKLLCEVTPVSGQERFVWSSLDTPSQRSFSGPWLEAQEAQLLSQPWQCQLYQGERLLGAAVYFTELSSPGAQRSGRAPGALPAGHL
In words: SPR, recombinant soluble LAG-3. For orientation: In SPR one partner is held on a chip, and binding of the other changes the refractive index at the surface.

The target in test [2] is T2, recombinant soluble cynomolgus monkey LAG-3 (cynomolgus monkey).
T2 construct: also called Cyno LAG-3; soluble LAG-3
The test is described as follows: SPR, recombinant soluble LAG-3.

The target of test [3] is T3, LAG-3 expressed on Jurkat cells (Homo sapiens (Human), UniProt P18627 23-525).
T3 sequence: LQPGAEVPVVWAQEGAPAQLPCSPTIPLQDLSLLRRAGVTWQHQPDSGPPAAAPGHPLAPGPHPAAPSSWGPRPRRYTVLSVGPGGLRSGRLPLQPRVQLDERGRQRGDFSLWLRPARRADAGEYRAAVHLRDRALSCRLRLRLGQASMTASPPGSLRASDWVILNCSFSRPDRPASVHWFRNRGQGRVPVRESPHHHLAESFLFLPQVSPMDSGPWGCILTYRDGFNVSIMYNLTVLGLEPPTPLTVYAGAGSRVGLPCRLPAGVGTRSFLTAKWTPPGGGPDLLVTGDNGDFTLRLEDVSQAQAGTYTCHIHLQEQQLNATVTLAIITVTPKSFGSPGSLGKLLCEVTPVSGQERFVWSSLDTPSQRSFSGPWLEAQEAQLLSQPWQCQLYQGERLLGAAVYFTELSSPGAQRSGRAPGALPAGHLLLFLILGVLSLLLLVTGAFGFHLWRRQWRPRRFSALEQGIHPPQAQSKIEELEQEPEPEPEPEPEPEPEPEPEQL
The test is described as follows: cell-based or functional assay.

Test [4] deals with T4, human LAG-3 expressed on the surface of CHO cells (human, UniProt P18627 23-525).
T4 construct: whole, on cells; also called LAG-3 expressing CHO cells; cell-surface-expressed LAG-3
T4 sequence (looked up): T3 sequence
The test is described as follows: binding to LAG-3 expressing CHO cells.

In test [5] the target is T5, cynomolgus monkey LAG-3 expressed on the surface of CHO cells (cynomolgus monkey).
T5 construct: whole, on cells; also called Cyno LAG-3; LAG-3 expressing CHO cells
In words: binding to LAG-3 expressing CHO cells.

For test [6], the target named is T6, LAG-3 (axis label "%LAG-3 OCCUPANCY", DONOR 1 to DONOR 4) (human, UniProt P18627).
T6 construct: full-length, on the cell surface; also called LAG-3 on SEB-stimulated human donor PBMCs
T6 sequence (receptor, looked up): T3 sequence
In words: receptor occupancy assay on SEB-stimulated human donor PBMCs (4 donors).

The target in test [7] is DyLight 650 (DyL650)-labeled LAG-3 fusion protein. The test is described as follows: flow cytometry competition: antibody titrated against binding of the DyL650-labeled LAG-3 fusion protein to MHC class II on Daudi cells; readout MFI (Dyl650).

B1: anti-LAG-3 antibody agent TSR-033 (antibody, human IgG4 S228P, kappa, V domains shown)
VH: EVQLVQSGAEVKKPGATVKISCKASGFSIKDDYIHWVQQAPGKGLEWMGWIDAMNDDSQYSSKFQGRVTITVDTSTNTAYMKLSSLRSEDTAVYYCTYAFGGYWGQGTTVTVSS
VL: DIVMTQTPLSLSVTPGQPASISCRSSQSLVHSDSNTYLHWYLQKPGQSPQLLIYLVSNRFSGVPDRFSGSGSGTDFTLKISRVEAEDVGVYFCGQSTHVPYAFGGGTKVEIKR
modifications: N-glycosylation at N291 of the heavy chain
notes: also called exemplary anti-LAG-3 antibody agent; exemplary anti-LAG-3 antibody
As to B1, the Kd (as a rule, the equilibrium constant for the complex coming apart) is 0.95 nM in test [1] and 2 nM in test [2]. Also, the koff (in general, the first-order rate constant of dissociation) is 0.00013 s⁻¹ in test [1] and 0.00026 s⁻¹ in test [2]. The “EC50 (read off the curve); NFAT-luciferase reporter signal (RLU)” value in test [3] was approximately 70 nM. Also, the EC50 (commonly the concentration needed to bring the measured effect to its halfway point) in test [4] was 0.8 nM; in test [5], 2.6 nM. Moreover, the EC50 (read off the curve) (usually the midpoint of the concentration-response curve) in test [6] is approximately 0.06 µg/mL. The IC50 – broadly, the concentration at which inhibition is half-maximal – in test [7] was determined as 3.4 nM.

These data come from patent US20220135670A1 (TESARO, published 2022).
